Measurements published in US20140017242A1, “ANTI-BRADYKININ B2 RECEPTOR (BKB2R) MONOCLONAL ANTIBODY” (Diamedica, Inc., priority 2010, published 2014).
Where no end group is shown, it is not given here.

Key:
[1] = target: T1, human BKB2R-derived epitope peptide, SE ID NO:73 (Homo sapiens, UniProt P30411); test: ForteBio Octet binding kinetics to the BKB2R epitope peptide; conditions: for binding compared with the original mouse monoclonal antibody: Octet, epitope peptide
T1 construct: purchased Biosyn, Lewisville, Tex
Protocol: Proteins corresponding to all combinations of humanized or chimeric (5F12G1 VH and VL on human IgG2 backbone) antibodies were tested for binding to the human BKB2R-derived epitope peptide, SE ID NO:73.
A ForteBio (Menlo Park, Calif., USA) Octet® platform was used to analyze the binding affinities and binding characteristics of the humanized monoclonal antibodies to the peptide epitope (SEQ ID NO:73) and compared to the original mouse monoclonal 5F12G1. This platform employed label-free technology for measuring biomolecular interactions by optical analysis of the interference pattern of white light reflected from two surfaces: a layer of immobilized protein on the biosensor tip, and an internal reference layer. Any change in the number of molecules bound to the biosensor tip caused a shift in the interference pattern that was measured in real-time. Binding specificity, and rates of association and dissociation were monitored.
(§1) For the Octet study, antibodies were analyzed by kinetic titration of the antibodies. Antibodies were prepared in kinetic buffer (0.001 M phosphate buffered saline (NaCl 0.0138 M; KCl-0.00027 M); pH 7.4, at 25° C., 0.1 mg/ml BSA, 0.002% Tween and 0.005% Sodium Azide) followed by 1:2 serial dilutions.
(§2) Sensor Prep: Streptavidin biosensors (FortéBio Inc, Menlo Park, Calif.) were coated by incubation in a solution containing a peptide ([…]-PEG-biotin) (Biosyn, Lewisville, Tex.) at 50 μg/ml (300 seconds/1000 rpm shaking). 96 well half-volume plates were used for testing. 90 μl of sample was plated per well. Sensors were allowed to equilibrate to baseline in kinetic buffer (60 seconds/1000 rpm). The sensors were then placed into the various antibody dilutions to allow binding (association) to the probe for 500 seconds/1000 rpm, and measurements were taken. The sensors were then moved into kinetic buffer without antibody for dissociation (500 seconds/1000 rpm), and measurements were taken. Octet system software calculated kinetic constants for on rate/off rate/affinity.
[…] […] Each concentration was tested twice. The HC and LC represented the mouse original 5F12G1 VH and VL sequences.

[2] = target: T2, human BKB2R-derived epitope peptide (SEQ ID NO:73), PEG-biotin (human, also: PEG-biotin, site not given here); test: BLI (Octet), peptide-PEG-biotin on streptavidin sensor, antibody 500 nM
T2 construct: also called immunogenic human BKB2R peptide fragment
T2 peptide: KEYSDEGHNVTAC
Protocol: as §1, §2
For test humanized monoclonal antibodies, the highest concentration used was 500 nM followed by 1:2 dilutions. Each concentration was tested twice. The HC and LC represented the mouse original 5F12G1 VH and VL sequences.

B1: L1/HC: humanized light chain L1 (SEQ ID NO:8) with HC, the mouse original 5F12G1 VH (antibody)
heavy: EVKLEESGGGLVQPGGSMKLSCVVSGFTFSDYWMSWVRHSPEMGLEWVAEIRLKSDNYATHYAESVKGRFTISRDDSKSRLYLQINSLRGEDTGIYYCTRDYYAMEYWGQGTSVTVSS
light: DIVMTQSPLSLPVTPGEPASISCRSSQTIVHSNGKTYLEWYLQKPGQSPQLLIYKVSNRFSGVPDRFSGSGSGTDFTLKISRVEAEDVGVYYCFQASHVPYTFGQGTKLEIKRTVAAPSVFIFPPSDEQLKSGTASVVCLLNNFYPREAKVQWKVDNALQSGNSQESVTEQDSKDSTYSLSSTLTLSKADYEKHKVYACEVTHQGLSSPVTKSFNRGEC
modifications: left off: a dimerising Fc or GST
kdis ([1]; Conc. 250 nM): 0.728 s⁻¹ | kon ([1]; Conc. 250 nM): 239000 M⁻¹ s⁻¹ | kdis ([1]; Conc. 500 nM): 2.16 s⁻¹ | kon ([1]; Conc. 500 nM): 543000 M⁻¹ s⁻¹

B2: humanized anti-BKB2R antibody H37/L37 (antibody, human IgG2, kappa, V domains shown)
VH: EVQLVESGGGLVQPGGSLRLSCAASGFTFSDYWMDWVRQAPGKGLEWVGEIRLKSDNYATHYAASVKGRFTISRDDSKNSLYLQMNSLKTEDTAVYYCTRDYYAMEYWGQGTTVTVSS
VL: DIVMTQTPLSLSVTPGQPASISCKSSQTIVHSNGKTYLYWYLQKPGQSPQLLIYKVSSRFSGVPDRFSGSGSGTDFTLKISRVEAEDVGVYYCFQASHVPYTFGQGTKLEIKR
Kd [2]: 758 nM | Max Response [2]: 0.12 | koff [2]: 1.18 s⁻¹ | kon [2]: 1.55e+06 M⁻¹ s⁻¹

B3: humanized anti-BKB2R antibody H38/L39 (antibody, human IgG2, kappa, V domains shown)
VH: EVQLLESGGGLVQPGGSLKLSCAVSGFTFSDYWMSWVRQAPGKGLEWVSEIRLKSDNYATHYADSVKGRFTISRDDSKNTLYLQMNSLRAEDTAVYYCTRDYYAMEYWGQGTLVTVSS
VL: DVVMTQTPLSLSVTPGQPASISCKSSQTIVHSNGKTYLEWYLQKPGQSPQLLIYKVSNRFSGVPDRFSGSGSGTDFTLKISRVEAEDVGVYYCFQASHVPYTFGQGTKLEIKR
Kd [2]: 93.2 nM | Max Response [2]: 0.0681 | koff [2]: 106 s⁻¹ | kon [2]: 1.14e+09 M⁻¹ s⁻¹

B4: L1/H1: humanized anti-BKB2R mAb, light chain L1 (SEQ ID NO:8), heavy chain H1 (SEQ ID NO:3), human IgG2/kappa (antibody, V domains shown)
VH: EVQLVESGGGLVQPGGSLRLSCAASGFTFSDYWMSWVRQAPGKGLEWVAEIRLKSDNYATHYAESVKGRFTISRDNAKNSLYLQMNSLRAEDTAVYYCTRDYYAMEYWGQGTLVTVSS
VL: DIVMTQSPLSLPVTPGEPASISCRSSQTIVHSNGKTYLEWYLQKPGQSPQLLIYKVSNRFSGVPDRFSGSGSGTDFTLKISRVEAEDVGVYYCFQASHVPYTFGQGTKLEIK
modifications: Humanized H1 Heavy Chain Variable Region VH; Humanized L1 Light Chain Variable Region VL
kdis ([1]; Conc. 250 nM): 0.701 s⁻¹ | kon ([1]; Conc. 250 nM): 1.59e+06 M⁻¹ s⁻¹ | kdis ([1]; Conc. 500 nM): 0.942 s⁻¹ | kon ([1]; Conc. 500 nM): 404000 M⁻¹ s⁻¹

B5: H39/L37: humanized anti-BKB2R mAb, heavy chain H39 (SEQ ID NO:7), light chain L37 (SEQ ID NO:10) (antibody, V domains shown)
VH: EVKLVESGGGLVQPGGSLRLSCAVSGFTFSDYWMDWVRQAPGKGLEWVAEIRLKSDNYATHYAASVKGRFTISRDDSKSRLYLQMNSLKTEDTAVYYCTRDYYAMEYWGQGTTVTVSS
VL: DIVMTQTPLSLSVTPGQPASISCKSSQTIVHSNGKTYLYWYLQKPGQSPQLLIYKVSSRFSGVPDRFSGSGSGTDFTLKISRVEAEDVGVYYCFQASHVPYTFGQGTKLEIK
modifications: Humanized H39 Heavy Chain Variable Region VH; Humanized L37 Light Chain Variable Region VL
kdis ([1]; Conc. 500 nM): 0.0288 s⁻¹ | kon ([1]; Conc. 500 nM): 1.23e+06 M⁻¹ s⁻¹ | binding compared with the original mouse monoclonal antibody [1]: stronger binding (lower KD)

B6: humanized anti-BKB2R antibody H39/L38 (antibody, human IgG2, kappa, V domains shown)
VH: EVKLVESGGGLVQPGGSLRLSCAVSGFTFSDYWMDWVRQAPGKGLEWVAEIRLKSDNYATHYAASVKGRFTISRDDSKSRLYLQMNSLKTEDTAVYYCTRDYYAMEYWGQGTTVTVSS
VL: DIVMTQTPLSLPVTSGEPASISCRSSQTIVHSNGKTYLDWYLQKPGQSPQLLIYKVSNRASGVPDRFSGSGSGTDFTLKISRVEAEDVGVYYCFQASHVPYTFGGGTKVEIKR
Kd [2]: 761 nM | Max Response [2]: 0.143 | koff [2]: 4.9 s⁻¹ | kon [2]: 6.44e+06 M⁻¹ s⁻¹

B7: humanized anti-BKB2R antibody H38/L38 (antibody, human IgG2, kappa, V domains shown)
VH: EVQLLESGGGLVQPGGSLKLSCAVSGFTFSDYWMSWVRQAPGKGLEWVSEIRLKSDNYATHYADSVKGRFTISRDDSKNTLYLQMNSLRAEDTAVYYCTRDYYAMEYWGQGTLVTVSS
VL: DIVMTQTPLSLPVTSGEPASISCRSSQTIVHSNGKTYLDWYLQKPGQSPQLLIYKVSNRASGVPDRFSGSGSGTDFTLKISRVEAEDVGVYYCFQASHVPYTFGGGTKVEIKR
Kd [2]: 2.49 nM | Max Response [2]: 0.132 | koff [2]: 0.00763 s⁻¹ | kon [2]: 3.06e+06 M⁻¹ s⁻¹

B8: H38/L38: humanized anti-BKB2R mAb, heavy chain H38 (SEQ ID NO:6), light chain L38 (SEQ ID NO:11) (antibody, V domains shown)
VH: EVQLLESGGGLVQPGGSLKLSCAVSGFTFSDYWMSWVRQAPGKGLEWVSEIRLKSDNYATHYADSVKGRFTISRDDSKNTLYLQMNSLRAEDTAVYYCTRDYYAMEYWGQGTLVTVSS
VL: DIVMTQTPLSLPVTSGEPASISCRSSQTIVHSNGKTYLDWYLQKPGQSPQLLIYKVSNRASGVPDRFSGSGSGTDFTLKISRVEAEDVGVYYCFQASHVPYTFGGGTKVEIK
modifications: Humanized H38 Heavy Chain Variable Region VH; Humanized L38 Light Chain Variable Region VL
kdis ([1]; Conc. 500 nM): 0.00763 s⁻¹ | kon ([1]; Conc. 500 nM): 3.06e+06 M⁻¹ s⁻¹ | binding compared with the original mouse monoclonal antibody [1]: stronger binding (lower KD)

B9: humanized anti-BKB2R antibody H37/L38 (antibody, human IgG2, kappa, V domains shown)
VH: EVQLVESGGGLVQPGGSLRLSCAASGFTFSDYWMDWVRQAPGKGLEWVGEIRLKSDNYATHYAASVKGRFTISRDDSKNSLYLQMNSLKTEDTAVYYCTRDYYAMEYWGQGTTVTVSS
VL: DIVMTQTPLSLPVTSGEPASISCRSSQTIVHSNGKTYLDWYLQKPGQSPQLLIYKVSNRASGVPDRFSGSGSGTDFTLKISRVEAEDVGVYYCFQASHVPYTFGGGTKVEIKR
Kd [2]: 220 nM | Max Response [2]: 0.173 | koff [2]: 2.08 s⁻¹ | kon [2]: 9.47e+06 M⁻¹ s⁻¹

B10: humanized anti-BKB2R antibody H39/L37 (antibody, human IgG2, kappa, V domains shown)
VH: EVKLVESGGGLVQPGGSLRLSCAVSGFTFSDYWMDWVRQAPGKGLEWVAEIRLKSDNYATHYAASVKGRFTISRDDSKSRLYLQMNSLKTEDTAVYYCTRDYYAMEYWGQGTTVTVSS
VL: DIVMTQTPLSLSVTPGQPASISCKSSQTIVHSNGKTYLYWYLQKPGQSPQLLIYKVSSRFSGVPDRFSGSGSGTDFTLKISRVEAEDVGVYYCFQASHVPYTFGQGTKLEIKR
Kd [2]: 23.4 nM | Max Response [2]: 0.119 | koff [2]: 0.0288 s⁻¹ | kon [2]: 1.23e+06 M⁻¹ s⁻¹

B11: humanized anti-BKB2R antibody H39/L39 (antibody, human IgG2, kappa, V domains shown)
VH: EVKLVESGGGLVQPGGSLRLSCAVSGFTFSDYWMDWVRQAPGKGLEWVAEIRLKSDNYATHYAASVKGRFTISRDDSKSRLYLQMNSLKTEDTAVYYCTRDYYAMEYWGQGTTVTVSS
VL: DVVMTQTPLSLSVTPGQPASISCKSSQTIVHSNGKTYLEWYLQKPGQSPQLLIYKVSNRFSGVPDRFSGSGSGTDFTLKISRVEAEDVGVYYCFQASHVPYTFGQGTKLEIKR
Kd [2]: 1730 nM | Max Response [2]: 0.0915 | koff [2]: 1.26 s⁻¹ | kon [2]: 729000 M⁻¹ s⁻¹

B12: humanized anti-BKB2R antibody H38/L37 (antibody, human IgG2, kappa, V domains shown)
VH: EVQLLESGGGLVQPGGSLKLSCAVSGFTFSDYWMSWVRQAPGKGLEWVSEIRLKSDNYATHYADSVKGRFTISRDDSKNTLYLQMNSLRAEDTAVYYCTRDYYAMEYWGQGTLVTVSS
VL: DIVMTQTPLSLSVTPGQPASISCKSSQTIVHSNGKTYLYWYLQKPGQSPQLLIYKVSSRFSGVPDRFSGSGSGTDFTLKISRVEAEDVGVYYCFQASHVPYTFGQGTKLEIKR
Kd [2]: 3110 nM | Max Response [2]: 0.577 | koff [2]: 29.4 s⁻¹ | kon [2]: 9.44e+06 M⁻¹ s⁻¹

B13: humanized anti-BKB2R antibody H37/L39 (antibody, human IgG2, kappa, V domains shown)
VH: EVQLVESGGGLVQPGGSLRLSCAASGFTFSDYWMDWVRQAPGKGLEWVGEIRLKSDNYATHYAASVKGRFTISRDDSKNSLYLQMNSLKTEDTAVYYCTRDYYAMEYWGQGTTVTVSS
VL: DVVMTQTPLSLSVTPGQPASISCKSSQTIVHSNGKTYLEWYLQKPGQSPQLLIYKVSNRFSGVPDRFSGSGSGTDFTLKISRVEAEDVGVYYCFQASHVPYTFGQGTKLEIKR
Kd [2]: 1230 nM | Max Response [2]: 0.121 | koff [2]: 1.98 s⁻¹ | kon [2]: 1.11e+06 M⁻¹ s⁻¹
